We go through six molecules from US7205275 (dated 2007).

First the molecules themselves.
B1: human Ang-1 (protein)
chain: SNQRRSPENSGRRYNRIQHGQCAYTFILPEHDGNCRESTTDQYNTNALQRDAPHVEPDFSSQKLQHLEHVMENYTQWLQKLENYIVENMKSEMAQIQQNAVQNHTATMLEIGTSLLSQTAEQTRKLTDVETQVLNQTSRLEIQLLENSLSTYKLEKQLLQQTNEILKIHEKNSLLEHKILEMEGKHKEELDTLKEEKENLQGLVTRQTYIIQELEKQLNRATTNNSVLQKQQLELMDTVHNLVNLCTKEGVLLKGGKREEEKPFRDCADVYQAGFNKSGIYTIYINNMPEPKKVFCNMDVNGGGWTVIQHREDGSLDFQRGWKEYKMGFGNPSGEYWLGNEFIFAITSQRQYMLRIELMDWEGNRAYSQYDRFHIGNEKQNYRLYLKGHTGTAGKQSSLILHGADFSTKDADNDNCMCKCALMLTGGWWFDACGPSNLNGMFYTAGQNHGKLNGIKWHYFKGPSYSLRSTTMMIRPLDF
B2: human Ang-2 (protein)
chain: YNNFRKSMDSIGKKQYQVQHGSCSYTFLLPEMDNCRSSSSPYVSNAVQRDAPLEYDDSVQRLQVLENIMENNTQWLMKLENYIQDNMKKEMVEIQQNAVQNQTAVMIEIGTNLLNQTAEQTRKLTDVEAQVLNQTTRLELQLLEHSLSTNKLEKQILDQTSEINKLQDKNSFLEKKVLAMEDKHIIQLQSIKEEKDQLQVLVSKQNSIIEELEKKIVTATVNNSVLQKQQHDLMETVNNLLTMMSTSNSAKDPTVAKEEQISFRDCAEVFKSGHTTNGIYTLTFPNSTEEIKAYCDMEAGGGGWTIIQRREDGSVDFQRTWKEYKVGFGNPSGEYWLGNEFVSQLTNQQRYVLKIHLKDWEGNEAYSLYEHFYLSSEELNYRIHLKGLTGTAGKISSISQPGNDFSTKDGDNDKCICKCSQMLTGGWWFDACGPSNLNGMYYPQRQNTNKFNGIKWYYWKGSGYSLKATTMMIRPADF
B3: PEG3.4K(L1-7 Peptide)2 (peptide)
chain: CGGGGGAQTNFMPMDDLEQRLYEQFILQQGLE
modifications: not fully specified (residue 1); printed as C-GGGGG-AQ-TNFMPMDDLEQRLYEQFILQQG-LE; also: dimer linked by PEG 3.4K via N-terminal Cys
B4: mouse Ang-2 (protein)
chain: YSNFRKSVDSTGRRQYQVQNGPCSYTFLLPETDSCRSSSSPYMSNAVQRDAPLDYDDSVQRLQVLENILENNTQWLMKLENYIQDNMKKEMVEIQQNVVQNQTAVMIEIGTSLLNQTAAQTRKLTDVEAQVLNQTTRLELQLLQHSISTNKLEKQILDQTSEINKLQNKNSFLEQKVLDMEGKHSEQLQSMKEQKDELQVLVSKQSSVIDELEKKLVTATVNNSLLQKQQHDLMETVNSLLTMMSSPNSKSSVAIRKEEQTTFRDCAEIFKSGLTTSGIYTLTFPNSTEEIKAYCDMDVGGGGWTVIQHREDGSVDFQRTWKEYKEGFGSPLGEYWLGNEFVSQLTGQHRYVLKIQLKDWEGNEAHSLYDHFYLAGEESNYRIHLTGLTGTAGKISSISQPGSDFSTKDSDNDKCICKCSQMLSGGWWFDACGPSNLNGQYYPQKQNTNKFNGIKWYYWKGSGYSLKATTMMIRPADF
B5: Con4 (N) (peptide)
chain: MGAQQEECEWDPWTCEHMLEGGGGG[Fc]
modifications: not fully specified (bridges); printed as MGAQQEECEWDPWTCEHMLEGGGGG-Fc; cysteine pairing not given here; also: Fc fusion domain at position 26

Like-named read-outs stand apart in the source and are kept apart here. Where no end group is shown, it is not given here. [ ]: non-standard residue; d: D form. mPEG 5K = methoxy-PEG 5 kDa coupled via the N-terminal cysteine; Fc = immunoglobulin Fc domain fused to the peptide (peptibody)

Assay [1] concerns the target Negative Control Peptibody 4883. Description: ELISA. (In general: In an ELISA, binding on a coated surface is turned into a signal by an enzyme label.)
Assay [2] has the same target. Description: ELISA. The source holds these as a separate data set.
Assay [3] deals with B2. The experiment in a line: competition ELISA vs Tie-2.
Assay [4] deals with Negative Control Peptibody 4883. Description: ELISA. The source holds these as a separate data set.
The target of assay [5] is B4. The experiment in a line: SPR. For orientation: In SPR one partner is held on a chip, and binding of the other changes the refractive index at the surface.
Assay [6] deals with B4. The experiment in a line: competition ELISA vs Tie-2.
Assay [7] deals with B1. Description: ELISA.
The target in assay [8] is B2. Description: ELISA.
Assay [9] concerns the target B2. The experiment in a line: SPR.
Assay [10] has as its target B4. Description: ELISA.
In assay [11] the target is B2. The experiment in a line: competition ELISA vs Tie-2.
For assay [12], the target named is B1. Description: competition ELISA vs Tie-2.

Turning to B1, the binding result in assay [1] is “no binding”.
Regarding B2, the binding result in assay [2] is listed as “no binding”.
B3 had an IC50 in the assay with human Ang-2 [3] of 0.058 nM.
Consider B4, for which the binding result in assay [4] is on record as “no binding”.
Turning to C(mPEG 5K)GGGGGAQTNFMPMDDLEQRLYEQFILQQGLE [mPEG5K-(L1-7 Peptide)], in the assay with human Ang-2 [3], the IC50 was determined as 11.7 nM.
Take B5: the Kd worked out at 0.6 nM in the assay with mouse Ang-2 [5] and 0.67 nM in the assay with human Ang-2 [9]. Also, the results for the IC50 in the assay with mouse Ang-2 [6], in the assay with human Ang-2 [11] and with human Ang-1 [12] were 0.72 nM, 0.85 nM and over 1000 nM, respectively. Moreover, in the assay with human Ang-1 [7], the binding result is on record as “no binding”. Also, the EC50 in the assay with human Ang-2 [8] amounted to 0.03 nM; with mouse Ang-2 [10], 0.07 nM.

The IC50 is the point on the concentration scale where inhibition reaches its midpoint. Higher therefore signals lower potency. In general, Kd refers to a measure of binding affinity in units of concentration. Lower therefore signals a tighter complex. One may read the EC50 as the concentration at which the effect is half-maximal. A lower EC50 goes with a more potent agent.
